Assay results as given in the supplement of paper PMC10567573.

B1: ZNF263 (parent)
chain: LLRHQRIHTGERPYKCPECGKSFS

Variants of: B1
Assay: protein stability index of a GFP-peptide fusion (GPS, HEK-293T) (PSI 1-6); higher = more stable
Conditions: c terminus: a fixed tail appended
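Note: lentivirally expressed fusions sorted by FACS into six bins by GFP to DsRed ratio, PSI derived from sequencing read proportions per bin multiplied by bin number.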

Variant | protein stability index
S24H | 2.12
S24G | 3.65
S24M | 2.28
S24E | 1.88
S24Y | 2.25
S24L | 2.43
S24R | 1.94
S24A | 1.92
S24I | 2.11
S24Q | 3.11
S24C | 3.14
S24V | 2.62
S24W | 2.59
S24N | 2.34
S24D | 2.36
S24T | 2.08
S24P | 2.24
S24F | 2.01
S24K | 2.07
P17A | 1.83
P17F | 1.94
P17G | 2.88
P17D | 2.19
P17Y | 1.39
P17S | 1.66
P17Q | 2.78

Variant | protein stability index
P17V | 2.05
P17H | 1.8
P17W | 1.74
P17M | 1.83
P17E | 2.26
P17I | 2.6
P17T | 2.38
P17R | 2.6
P17N | 2.39
P17L | 1.91
P17C | 2
P17K | 2.15
C16S | 2.73
C16L | 2.38
C16W | 3.15
C16M | 2.36
C16E | 3.33
C16P | 3.06
C16N | 2.76
C16D | 3.46
C16H | 3.04
C16V | 2.16
C16Y | 2.12
C16I | 2.77
C16K | 3.44
C16T | 3.4

Variant | protein stability index
C16Q | 3.2
C16A | 3.17
C16G | 3.9
C16F | 2.48
C16R | 3.74
S22F | 2.2
S22P | 2.36
S22A | 2.41
S22N | 1.4
S22W | 2.09
S22V | 2.98
S22Y | 2.38
S22I | 2.88
S22C | 2.37
S22H | 2.29
S22G | 2.65
S22K | 2.35
S22R | 2.4
S22L | 1.92
S22D | 1.63
S22E | 1.88
S22M | 2.05
S22T | 2.23
S22Q | 2.5
E18Y | 3.02
E18W | 3.24

Variant | protein stability index
E18T | 2.25
E18A | 2.25
E18F | 2.48
E18N | 2.24
E18R | 2.41
E18C | 1.86
E18V | 2.15
E18I | 2.42
E18K | 2.64
E18S | 2.25
E18Q | 2.41
E18P | 2.37
E18D | 1.96
E18H | 2.5
E18L | 2.24
E18G | 2.3
E18M | 2.46
K15V | 2.4
K15S | 2.48
K15M | 2.15
K15G | 2.62
K15N | 2.19
K15Y | 2.17
K15A | 2.52
K15T | 1.97
K15I | 2.46

Variant | protein stability index
K15P | 1.74
K15Q | 2.46
K15H | 2.29
K15W | 2.03
K15D | 2.74
K15F | 2.41
K15E | 2.66
K15R | 2
K15L | 1.98
K15C | 2.16
G20W | 1.46
G20N | 2.35
G20L | 1.66
G20H | 2.21
G20Q | 1.86
G20R | 1.79
G20S | 1.95
G20K | 2.27
G20P | 1.88
G20M | 2.13
G20I | 1.75
G20A | 2.05
G20D | 2.52
G20Y | 1.76
G20T | 2.17
G20E | 1.66

Variant | protein stability index
G20C | 1.87
G20V | 2.42
G20F | 2.99
Y14V | 2.38
Y14W | 2.35
Y14K | 1.59
Y14S | 1.95
Y14T | 2.25
Y14P | 2.09
Y14L | 2.48
Y14R | 1.94
Y14M | 2.42
Y14Q | 2.11
Y14H | 2.13
Y14N | 2.39
Y14I | 2.23
K21N | 2.05
K21V | 1.91
K21G | 1.83
K21C | 2.11
K21D | 2.38
K21H | 2.82
K21S | 1.84
K21E | 2.53
K21A | 2.93
K21T | 2.16

Variant | protein stability index
K21F | 1.82
K21R | 2.01
K21P | 2.61
K21Y | 2.19
K21I | 1.68
K21M | 1.59
K21L | 2.77
K21Q | 2.75
C19R | 3.57
C19L | 2.15
C19S | 2.45
C19P | 2.87
C19W | 1.66
C19M | 2.07
C19D | 3.28
C19T | 3.42
C19G | 3.3
C19H | 3.21
C19A | 3.18
C19Q | 3.3
C19F | 2.12
C19V | 3.08
C19I | 1.81
C19Y | 2.45
C19K | 3.08
C19E | 3.31

Variant | protein stability index
F23W | 1.84
F23Y | 2.79
F23D | 3.13
F23H | 3.64
F23C | 3.29
F23Q | 3.71
F23G | 2.75
F23N | 2.68
F23M | 1.99
F23E | 2.38
F23L | 2.14
F23I | 2.51
F23V | 2.53
F23S | 2.25
F23P | 3.39
F23A | 2.87
F23R | 1.93
F23K | 2.83
F23T | 2.59
